# Experimental data published in article PMC5844793 (Bioorganic & medicinal chemistry, 2017).
# Entries after “also recorded” stand apart in the source; their conditions may differ. Read-outs that look alike come from different tables or passages of the source. *1 amine or outer side, *2 acyl side, *3 side chain or, on linkers, in order; H or OH if unused. Bridges are numbered along the chain shown (N, C = ends). The star is where a group is joined. fluorescein = fluorescein: a label attached as NHS-fluorescein acylation on the lysine side chain (K*); pXylylene = c1cc(C[*:2])ccc1C[*:1]; Cysteamide = C(CS[*:3])N[*:1]; 4‑pentynyl = C#CCCC*
# T1: 5-OX (linker 1-6 via ortho‑xylene (inferred))
# T1 chain: Ac-CNPFEC-OH
# T2: 4-MX (bridge 1-C; not fully specified (bridges))
# T2 chain: {4‑pentynyl}-CNPFEE-Cysteamide
# T3: 1-MX (thioether 1-C via meta‑xylene)
# T3 chain: {4‑pentynyl}-CYNPFEE-Cysteamide
# T4: 3-OX (bridge 1-C; not fully specified (bridges))
# T4 chain: {4‑pentynyl}-CNPFE-Cysteamide
# T5: 1-PX (thioether 1-C via pXylylene (inferred))
# T5 chain: {4‑pentynyl}-CYNPFEE-Cysteamide
# T6: cNPF1 (backbone cyclic)
# T6 chain: YNPFEEGG
# T7: 4-PX (bridge 1-C; not fully specified (bridges))
# T7 chain: {4‑pentynyl}-CNPFEE-Cysteamide
# T8: 4-OX (bridge 1-C; not fully specified (bridges))
# T8 chain: {4‑pentynyl}-CNPFEE-Cysteamide
# T9: cNPF1Flu
# T9 chain: cyclo(YNPFEEGK(fluorescein))
# B1: EHD1-EH EH domain (protein)
# chain: VGKDKPTYDEIFYTLSPVNGKITGANAKKEMVKSKLPNTVLGKIWKLADVDKDGLLDDEEFALANHLIKVKLEGHELPADLPPHLVPPSKRRHE
# Key:
# HeLa cells = experiment: Cell-based transferrin; settings: 50 μM during 60-min pulse and 30-min chase
# 5-OX = molecular target: T1, 5-OX; experiment: fluorescence polarization competition
# 4-MX = molecular target: T2, 4-MX; experiment: fluorescence polarization competition
# 1-MX = molecular target: T3, 1-MX; experiment: fluorescence polarization competition
# 3-OX = molecular target: T4, 3-OX; experiment: fluorescence polarization competition
# 1-PX = molecular target: T5, 1-PX; experiment: fluorescence polarization competition
# cNPF1 = molecular target: T6, cNPF1; experiment: fluorescence polarization competition
# 4-PX = molecular target: T7, 4-PX; experiment: fluorescence polarization competition
# 4-OX = molecular target: T8, 4-OX; experiment: fluorescence polarization competition
# cNPF1Flu = molecular target: T9, cNPF1Flu; experiment: fluorescence polarization
# Flu-3-OX [1] = molecular target: Flu-3-OX
# Flu-3-OX [2] = molecular target: Flu-3-OX; remark: listed apart in the source
# Flu-1-PX [3] = molecular target: Flu-1-PX
# Flu-1-PX [4] = molecular target: Flu-1-PX; remark: listed apart in the source
# Flu-5-OX [5] = molecular target: Flu-5-OX
# Flu-5-OX [6] = molecular target: Flu-5-OX; remark: listed apart in the source
# Flu-4-PX [7] = molecular target: Flu-4-PX
# Flu-4-PX [8] = molecular target: Flu-4-PX; remark: listed apart in the source
Molecule,effect on trafficking/recycling of Tf-488 (HeLa cells),IC50 (5-OX) [µM],IC50 (4-MX) [µM],IC50 (1-MX) [µM],IC50 (3-OX) [µM],IC50 (1-PX) [µM],IC50 (cNPF1) [µM],IC50 (4-PX) [µM],IC50 (4-OX) [µM],Kd (cNPF1Flu) [µM],Kd (Flu-3-OX [1]) [µM],Kd (Flu-3-OX [2]) [µM],Kd (Flu-1-PX [3]) [µM],Kd (Flu-1-PX [4]) [µM],Kd (Flu-5-OX [5]) [µM],Kd (Flu-5-OX [6]) [µM],Kd (Flu-4-PX [7]) [µM],Kd (Flu-4-PX [8]) [µM]
COc1cc(NC(C)CCCN)c2ncccc2c1 (stereo not drawn) [primaquine],"increased signal following the chase, consistent with impaired recycling of internalized Tf-488; also recorded: inhibition of recycling",,,,,,,,,,,,,,,,,
B1,,34,88.1,68.8,76.5,27.1,55.5,38.9,62.8,3,4.5,14.6,1.1,6,1.6,7.3,1.8,8.1
